Here are results for two molecules from patent US20240287172A1 (SCIRHOM, published 2024).

In one assay the target is T1, hiR2-FL-I477M-T7 (human, UniProt Q6PJF5 1-856).
T1 sequence: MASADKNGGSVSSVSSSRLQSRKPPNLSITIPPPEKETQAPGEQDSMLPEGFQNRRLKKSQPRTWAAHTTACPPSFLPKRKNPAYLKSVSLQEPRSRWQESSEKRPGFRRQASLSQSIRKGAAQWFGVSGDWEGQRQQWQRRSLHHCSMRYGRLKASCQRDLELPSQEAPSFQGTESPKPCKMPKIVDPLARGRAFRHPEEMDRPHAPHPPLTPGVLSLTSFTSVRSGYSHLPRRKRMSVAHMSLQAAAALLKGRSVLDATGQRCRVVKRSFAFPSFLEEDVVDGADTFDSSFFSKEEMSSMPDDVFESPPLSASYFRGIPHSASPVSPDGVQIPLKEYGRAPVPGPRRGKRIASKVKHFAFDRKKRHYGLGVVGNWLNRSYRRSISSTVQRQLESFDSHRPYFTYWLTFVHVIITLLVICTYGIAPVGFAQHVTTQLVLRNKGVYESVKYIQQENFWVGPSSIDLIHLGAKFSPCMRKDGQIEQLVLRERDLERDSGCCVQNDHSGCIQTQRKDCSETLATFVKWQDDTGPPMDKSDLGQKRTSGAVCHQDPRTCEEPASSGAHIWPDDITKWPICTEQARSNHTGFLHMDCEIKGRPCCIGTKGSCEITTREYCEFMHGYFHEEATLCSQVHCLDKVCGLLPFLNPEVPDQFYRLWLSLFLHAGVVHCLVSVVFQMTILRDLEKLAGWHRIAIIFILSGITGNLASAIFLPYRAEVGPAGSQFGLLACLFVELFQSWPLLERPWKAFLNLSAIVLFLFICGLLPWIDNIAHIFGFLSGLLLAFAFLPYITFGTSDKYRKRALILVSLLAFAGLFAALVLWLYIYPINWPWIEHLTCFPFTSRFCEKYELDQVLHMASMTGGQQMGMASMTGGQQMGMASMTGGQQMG
Description: FACS, MEF-DKO cells, 3 µg/ml. The text has this:
(§1) In brief, immortalized MEF-DKO-hiR2-FL-A431S-T7, MEF-DKO-hiR2-FL-V434E-T7, MEF-DKO-hiR2-FL-T436V-T7, MEF-DKO-hiR2-FL-Q437D-T7, MEF-DKO-hiR2-FL-L438S-T7, MEF-DKO-hiR2-FL-S448N-T7, MEF-DKO-hiR2-FL-I452V-T7, MEF-DKO-hiR2-FL-I464E-T7, MEF-DKO-hiR2-FL-D465A-T7, MEF-DKO-hiR2-FL-I477M-T7, MEF-DKO-hiR2-FL-K479Q-T7, MEF-DKO-hiR2-FL-G481P-T7, MEF-DKO-hiR2-FL-I483V-T7, MEF-DKO-hiR2-FL-E484H-T7, MEF-DKO-hiR2-FL-Q485S-T7, MEF-DKO-hiR2-FL-L486F-T7, MEF-DKO-hiR2-FL-V487I-T7, MEF-DKO-hiR2-FL-R489S-T7, MEF-DKO-hiR2-FL-E490A-T7, MEF-DKO-hiR2-FL-D492E-T7, MEF-DKO-hiR2-FL-L493R-T7, MEF-DKO-hiR2-FL-R495K-T7 and MEF-DKO-hiR2-FL-D496H-T7 cells were harvested with 10 mM EDTA in PBS, washed and resuspended in FACS buffer (PBS, 3% FBS, 0.05% sodium azide), and seeded in Nunc U-bottom 96-well plates (Thermo Fisher Scientific, USA) at approximately 1×10⁵ cells per well. To pellet cells and remove supernatants, the plates were centrifuged at 1,500 rpm and 4° C. for 3 minutes. For primary staining, cells were resuspended in 100 μl per well of either FACS buffer alone (controls) or the purified antibodies 3, 5, 16, 22, 34, 42, 43, 44, 48, and 50 of the invention at 3 μg/ml in FACS buffer and incubated on ice for 1 hour. Afterwards, plates were centrifuged at 1,500 rpm and 4° C. for 3 minutes and washed twice with 200 μl per well of FACS buffer. For secondary staining, cells were spun down and resuspended in 100 μl per well of PE-conjugated goat anti-mouse IgG F(ab′)2 detection fragment (Dianova, Germany) diluted 1:100 in FACS buffer. Protected from light, the cell suspensions were incubated on ice for 1 hour. Plates were then centrifuged at 1,500 rpm and 4° C. for 3 minutes and washed three times with 200 μl per well of FACS buffer. Finally, cells were resuspended in 150 μl per well of FACS buffer and analyzed using a BD Accuri™ C6 Plus flow cytometer (Becton Dickinson, Germany).
(In general: A flow cytometer gives signals particle by particle.)

The target in the next assay is T2, hiR2-FL-V434E-T7 (human, UniProt Q6PJF5 1-856).
T2 sequence: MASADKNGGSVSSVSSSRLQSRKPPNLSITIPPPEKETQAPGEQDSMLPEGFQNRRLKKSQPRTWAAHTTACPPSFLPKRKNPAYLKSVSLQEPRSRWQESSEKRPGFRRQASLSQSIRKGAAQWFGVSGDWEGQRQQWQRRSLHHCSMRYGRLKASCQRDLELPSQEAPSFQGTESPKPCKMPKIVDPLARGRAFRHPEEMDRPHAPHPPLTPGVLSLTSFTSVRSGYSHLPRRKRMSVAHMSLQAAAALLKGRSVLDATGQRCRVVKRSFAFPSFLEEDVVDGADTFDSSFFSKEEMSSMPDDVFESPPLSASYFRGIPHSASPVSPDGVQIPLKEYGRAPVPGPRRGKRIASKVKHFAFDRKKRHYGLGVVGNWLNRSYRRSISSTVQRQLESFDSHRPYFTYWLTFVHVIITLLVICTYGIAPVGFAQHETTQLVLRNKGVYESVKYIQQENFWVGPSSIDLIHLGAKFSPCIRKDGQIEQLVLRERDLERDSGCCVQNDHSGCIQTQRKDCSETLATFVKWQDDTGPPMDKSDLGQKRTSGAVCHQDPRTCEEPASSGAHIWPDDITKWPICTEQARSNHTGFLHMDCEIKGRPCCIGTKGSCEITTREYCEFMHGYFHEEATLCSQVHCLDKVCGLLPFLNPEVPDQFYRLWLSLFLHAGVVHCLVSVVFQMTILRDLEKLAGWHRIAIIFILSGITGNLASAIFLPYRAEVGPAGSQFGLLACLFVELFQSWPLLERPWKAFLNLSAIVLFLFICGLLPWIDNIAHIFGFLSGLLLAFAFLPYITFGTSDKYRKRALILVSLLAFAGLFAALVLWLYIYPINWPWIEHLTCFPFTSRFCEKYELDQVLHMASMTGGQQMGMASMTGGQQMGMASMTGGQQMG
Description: FACS, MEF-DKO cells, 3 µg/ml.
Text: as §1

B1: antibody 48 (antibody, V domains shown)
VH: QVQLQQSGTELVRPGTSVKVSCKASGYAFTNYLIEWVKQRPGQGLEWIGVINPGSGFTKYNEKFKGKATLTADKSSSTVYMHLSSLTSEDSAVYFCARGLYRAMDYWGQGTSVTVSS
VL: DIQMTQSPASQSASLGESVTITCLASQTIATWLAWYQQKPGKSPQLLIYGATTLADGVPSRFSGGGSGTKFSFKISSLQAEDFVSYYCQQLYSTPYTFGGGTKLEIK
notes: mouse IgG, kappa light chain; also called clone #48; purified antibody 48
For the molecule B1, the “loss of binding vs wild type” value in the assay with hiR2-FL-I477M-T7 and in the assay with hiR2-FL-V434E-T7 was at least 30% each time.

B2: antibody 50 (antibody, V domains shown)
VH: QVQLQQSGAELVRPGASVKVSCKASGYAFSNYLIEWVKQRPGQGLEWIGVINPGSGFTKYNEKFKGKATLTADKSSSTAYMQLSSLTSEDSAVYFCARGLYRAMDYWGQGTSVTVSS
VL: DIQMTQSPASQSASLGESVTITCLASQTIGTWLAWYQQKPGKSPQLLIYAAASLADGVPSRFSGGGSGTKFSFKISSLQAEDFVNYYCQQIYSTPYTFGGGTKLEIK
notes: mouse IgG, kappa light chain; also called clone #50; purified antibody 50
As to B2, the “loss of binding vs wild type” value in the assay with hiR2-FL-I477M-T7 and with hiR2-FL-V434E-T7 was at least 30% each time.
